Reference: patent US20260191974A1, “B7-H3 TARGETING LIGANDS AND METHODS OF USE” (The University of North Carolina at Chapel Hill, priority 2022, published 2026)

Legend:
[1] = target: T1, biotinylated B7-H3 (B7-H3b), immune checkpoint protein; experiment: SPR, biotinylated B7-H3 on NeutrAvidin chip, peptide as analyte
T1 sequence (Q5ZPR3 whole entry, species assumed, looked up): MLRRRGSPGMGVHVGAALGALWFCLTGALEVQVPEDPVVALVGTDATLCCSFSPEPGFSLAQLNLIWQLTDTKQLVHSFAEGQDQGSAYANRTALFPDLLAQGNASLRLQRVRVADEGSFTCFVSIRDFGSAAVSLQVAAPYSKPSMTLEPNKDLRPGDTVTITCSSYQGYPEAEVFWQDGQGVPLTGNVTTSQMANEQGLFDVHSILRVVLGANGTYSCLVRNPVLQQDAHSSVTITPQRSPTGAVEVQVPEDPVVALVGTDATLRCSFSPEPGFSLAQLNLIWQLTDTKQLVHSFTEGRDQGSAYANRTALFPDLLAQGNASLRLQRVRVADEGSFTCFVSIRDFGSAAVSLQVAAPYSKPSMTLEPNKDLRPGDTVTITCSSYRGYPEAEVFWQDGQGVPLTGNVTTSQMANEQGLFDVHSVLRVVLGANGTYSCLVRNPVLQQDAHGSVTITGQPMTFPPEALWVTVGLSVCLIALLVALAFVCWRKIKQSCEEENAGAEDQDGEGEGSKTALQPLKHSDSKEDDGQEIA

[2] = target: T1, biotinylated B7-H3 (B7-H3b), immune checkpoint protein; experiment: SPR (BIACORE 8K, single-cycle kinetics, 1:1 fit); biotinylated B7-H3 on a NeutrAvidin chip, peptide as analyte at 7.5-120 nM

Kd [1]: 46.9 nM | koff [2]: 0.0448 s⁻¹ | kon [2]: 955000 M⁻¹ s⁻¹
B1: Met9Nle variant of B1.1 (methionine to norleucine variant of the selected cyclic, disulfide peptide) (peptide)
peptide: WALQLCHSXFYTCKSG
modifications: norleucine (Nle) at position 9; N-terminal acetylation (ac); lactam bridge Q4-K14; disulfide bond C6-C13
